Assay results as given in the Human Domainome abundance scans (Beltran et al. 2025).
± gives the uncertainty stated by the source.

B1: Cell division cycle and apoptosis regulator protein 1, residues 625 to 674; numbered along this chain, Q8IX12 (parent)
chain: ISTPTHWSKLDPKTMKVNDLRKELESRALSSKGLKSQLIARLTKQLKVEE

Variants of: B1
Experiment: abundance fitness (aPCA) (normalised: wild type 0, dead -1); higher = more abundant; growth selection in yeast, the domain comes from the species named
Settings: Homo sapiens

Row | Variant | abundance fitness
1 | I39T | -0.049 ± 0.029
2 | K35V | -0.264 ± 0.038
3 | K22D | -0.239 ± 0.075
4 | L46K | -0.347 ± 0.056
5 | S8V | -0.304 ± 0.047
6 | H6K | -0.008 ± 0.05
7 | E49K | -1.19 ± 0.22
8 | E23D | -0.916 ± 0.18
9 | K22A | -0.148 ± 0.044
10 | K47V | -0.168 ± 0.037
11 | K44H | -0.246 ± 0.07
12 | S31M | -0.066 ± 0.038
13 | S8M | -0.254 ± 0.041
14 | S26A | 0.088 ± 0.048
15 | K16S | -0.011 ± 0.038
16 | K22S | -0.004 ± 0.043
17 | E25D | -0.581 ± 0.081
18 | L20M | -0.115 ± 0.032
19 | K47M | -0.266 ± 0.053
20 | T14F | -0.204 ± 0.063
21 | K16G | -0.059 ± 0.041
22 | L24C | -0.393 ± 0.054
23 | V17R | -0.139 ± 0.035
24 | L42N | -0.515 ± 0.049

Row | Variant | abundance fitness
25 | S26F | 0.028 ± 0.06
26 | E23V | -0.924 ± 0.081
27 | T3L | -0.037 ± 0.041
28 | V48S | -0.059 ± 0.033
29 | P12D | -1.02 ± 0.25
30 | E50V | -0.231 ± 0.035
31 | L34P | -0.011 ± 0.055
32 | A40C | -0.07 ± 0.046
33 | G33P | -1.02 ± 0.077
34 | K35T | -0.276 ± 0.061
35 | E50H | 0.003 ± 0.16
36 | T14Q | -0.022 ± 0.063
37 | R41W | -0.877 ± 0.069
38 | L24D | -0.881 ± 0.13
39 | K16R | -0.173 ± 0.036
40 | K47N | -0.106 ± 0.046
41 | I39M | -0.1 ± 0.039
42 | R41V | -0.417 ± 0.043
43 | L38K | -0.324 ± 0.046
44 | L46Y | -0.617 ± 0.11
45 | S26R | 0.118 ± 0.035
46 | L10R | -0.593 ± 0.032
47 | K35E | -0.074 ± 0.048
48 | S36D | -0.085 ± 0.065

Row | Variant | abundance fitness
49 | D11N | 0.054 ± 0.051
50 | P4N | -0.133 ± 0.076
51 | K32H | -0.05 ± 0.062
52 | E23K | -1 ± 0.061
53 | Q37I | -0.513 ± 0.056
54 | L42Q | -0.505 ± 0.052
55 | W7D | -0.197 ± 0.044
56 | K13E | -0.195 ± 0.034
57 | E25A | -0.443 ± 0.056
58 | L24W | -1.11 ± 0.15
59 | G33F | -0.98 ± 0.14
60 | L29I | 0.045 ± 0.054
61 | R41E | -0.212 ± 0.045
62 | E49A | -0.867 ± 0.053
63 | T43S | -0.048 ± 0.047
64 | P12K | -0.875 ± 0.075
65 | E49G | -0.919 ± 0.044
66 | G33H | -0.932 ± 0.14
67 | R27F | -1.02 ± 0.16
68 | R27I | -1.1 ± 0.14
69 | A40N | -0.066 ± 0.036
70 | S26M | 0.073 ± 0.051
71 | T14H | 0.135 ± 0.044
72 | Q45I | -0.187 ± 0.068

Row | Variant | abundance fitness
73 | L42K | -0.677 ± 0.055
74 | L10D | -0.748 ± 0.038
75 | L42S | -0.563 ± 0.04
76 | S36F | -0.186 ± 0.05
77 | L38G | -0.603 ± 0.034
78 | N18P | 0.072 ± 0.027
79 | K13L | -0.241 ± 0.036
80 | V17G | -0.146 ± 0.031
81 | E49R | -0.935 ± 0.046
82 | T5H | -0.234 ± 0.039
83 | L20F | -0.65 ± 0.067
84 | R27Q | -0.845 ± 0.098
85 | L46D | -0.705 ± 0.039
86 | V17K | 0.022 ± 0.065
87 | T5Q | -0.091 ± 0.063
88 | L29W | -0.746 ± 0.039
89 | L29F | -0.112 ± 0.058
90 | S36R | -0.115 ± 0.032
91 | L24G | -0.905 ± 0.064
92 | H6I | -0.014 ± 0.058
93 | T43N | -0.021 ± 0.062
94 | K47T | -0.131 ± 0.062
95 | T43H | -0.105 ± 0.035
96 | K16A | -0.227 ± 0.035

Row | Variant | abundance fitness
97 | K47P | -0.806 ± 0.095
98 | T3M | -0.004 ± 0.06
99 | R21K | -0.117 ± 0.072
100 | S31K | -0.132 ± 0.057
101 | S36T | -0.049 ± 0.052
102 | R21S | -0.191 ± 0.049
103 | I1E | -0.314 ± 0.11
104 | K16E | -0.066 ± 0.039
105 | N18Q | 0.085 ± 0.029
106 | V17S | -0.036 ± 0.037
107 | K13W | -0.474 ± 0.034
108 | R27S | -0.818 ± 0.043
109 | T43I | -0.05 ± 0.06
110 | S30V | -0.047 ± 0.034
111 | I1V | -0.11 ± 0.046
112 | T5G | -0.225 ± 0.033
113 | L24N | -0.991 ± 0.13
114 | Q45K | -0.015 ± 0.062
115 | W7G | -0.187 ± 0.046
116 | R21I | -0.006 ± 0.07
117 | L24T | -0.77 ± 0.036
118 | P4Y | 0.012 ± 0.066
119 | K35Y | -0.333 ± 0.045
120 | S36P | -0.005 ± 0.048

Row | Variant | abundance fitness
121 | S30C | 0.069 ± 0.048
122 | R27C | -0.776 ± 0.083
123 | A40I | -0.186 ± 0.065
124 | S2R | -0.021 ± 0.032
125 | T5P | -0.384 ± 0.062
126 | T14C | -0.074 ± 0.043
127 | S31Q | 0.079 ± 0.032
128 | V48E | -0.023 ± 0.051
129 | D19P | -0.334 ± 0.034
130 | L38H | -0.628 ± 0.07
131 | I39K | 0.016 ± 0.048
132 | G33A | -0.891 ± 0.059
133 | K47W | -0.334 ± 0.053
134 | I39R | -0.013 ± 0.034
135 | E23M | -0.965 ± 0.13
136 | R21V | -0.106 ± 0.037
137 | N18Y | -0.036 ± 0.029
138 | D11Q | 0.072 ± 0.04
139 | N18F | -0.056 ± 0.038
140 | T14P | -0.798 ± 0.079
141 | K47E | -0.23 ± 0.05
142 | S8P | -0.616 ± 0.16
143 | L20D | -0.741 ± 0.083
144 | T3K | 0.042 ± 0.052

Row | Variant | abundance fitness
145 | P4C | 0.139 ± 0.056
146 | L38F | -0.866 ± 0.085
147 | T3C | -0.025 ± 0.038
148 | E50R | -0.27 ± 0.068
149 | P12G | -0.655 ± 0.035
150 | T14M | -0.013 ± 0.044
151 | T43A | -0.01 ± 0.047
152 | S30G | -0.026 ± 0.037
153 | M15N | -0.942 ± 0.13
154 | E25W | -0.304 ± 0.049
155 | Q45D | -0.596 ± 0.073
156 | R41F | -0.814 ± 0.07
157 | L34K | 0.079 ± 0.038
158 | V17N | 0.249 ± 0.06
159 | A28E | 0.038 ± 0.055
160 | K9M | -0.077 ± 0.044
161 | R27G | -0.743 ± 0.045
162 | K13F | -0.308 ± 0.059
163 | I1C | -0.398 ± 0.18
164 | R21Q | -0.259 ± 0.087
165 | Q45V | -0.211 ± 0.046
166 | E23T | -0.672 ± 0.05
167 | S30M | -0.067 ± 0.035
